Test results as given in patent US20100313308.
Where a chain is given by its changes, count along the chain named.

B1: GST-UBP15 (protein)
chain: MLEPRGADIPILFLVLVVLPVVAYILLGKWSNISEKRVRANLLAQMAAEEALRAETVVNADRGVRFESVATENRAQRTRTKTVSAGGGAVRAEFDAGARETVAEQRSDSVTATCGVTVVAPVNNNELHVCARCFGPAKTRCSRCKSVRYCSGKCQIIHWRVAHKDECVPVESCSSSSERVSFEKDSVLYDHGMDSTMYSNNTTQAAKGKTSKSSVDFASLGISQNDITPQINTQGRKSVGKQHSSKANRESCRRDSATVFDSSDEAASAGGDNKTSHIKHKSRGNSYAAETNPRRHSVDSSAVQMNGQSFVSGMQESHKHENNLGVRSSFGCPNTQYPSNGTRTATLPRTGINKSGEQSCTETSKKGQVAAVSKTVRSKDTGISEESNGISSTMGIMKMMGLRNSTKHDDRYKNLKMLFPYEEFLKFFQCEVFDLSPRGLVNCGNSCYANAVLQSLTCTKPLVAYLLRRSHSRSCSGKDWCLMCELEQHVMMLRESGGPLSASRILSHMRSINCQIGDGSQEDAHEFLRLLVASMQSICLERLGGETKVDPRLQETTLVQHMFGGRLRSKVKCLRCDHESERYENIMDLTLEIYGWVESLQDALTQFTRPEDLDGENMYRCSRCAGYVRARKELSIHEAPNILTIVLKRFQEGRYGKINKCISFPEMLDMIPFMTRTGDVPPLYMLYAVIVHLDTLNASFSGHYISYVKDLRGNWYRIDDSEIHPVPMTQVMSEGAYMLFYMRSYPRPQRGEHNGKAPVHHSQPRNEMKEQRKPVNRFKPRADHKNTESSSSEWSLFTSSDEASFTTESTRDSFSTIDYTDVCHVVDSSSPFAIFNNVYHNVEPSPHNTVACRMFSGTKPETRYFVEQETNHNNTVVLDATPSLYPIPAPYPPHDYYDQSMYVNYETNPEFNNGQDQDRTYSYW
B2: GST-UBP15C447A (protein)
chain: B1 chain with C447A
B3: GST-UBP15C447S (protein)
chain: B1 chain with C447S

Legend:
[1] = molecular target: his-tagged polyubiquitin UBQ10 (hexameric polyubiquitin), Q8H159
[2] = molecular target: his-tagged ubiquitin-extension protein UBQ1
[3] = molecular target: multiubiquitin chain linked by iso-peptide

his-tagged polyubiquitin UBQ10 (hexameric polyubiquitin), Q8H159, sequence (Q8H159 whole entry, looked up): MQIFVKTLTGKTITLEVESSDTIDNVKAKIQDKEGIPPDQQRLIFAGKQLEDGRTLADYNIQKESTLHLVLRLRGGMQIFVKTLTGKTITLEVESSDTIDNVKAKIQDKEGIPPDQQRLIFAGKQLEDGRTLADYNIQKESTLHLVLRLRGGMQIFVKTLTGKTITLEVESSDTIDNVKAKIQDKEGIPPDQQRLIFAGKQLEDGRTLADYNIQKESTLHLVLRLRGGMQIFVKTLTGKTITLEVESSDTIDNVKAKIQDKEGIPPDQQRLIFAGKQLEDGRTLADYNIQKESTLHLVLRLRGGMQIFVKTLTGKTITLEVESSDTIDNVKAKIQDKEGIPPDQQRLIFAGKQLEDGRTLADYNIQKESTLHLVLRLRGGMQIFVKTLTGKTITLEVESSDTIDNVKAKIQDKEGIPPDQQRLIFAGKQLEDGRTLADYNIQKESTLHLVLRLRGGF

| Protein | in vitro DUB activity assay (co-expression in E. coli, immunoblot with anti-ubiquitin antibody) [1] | in vitro DUB activity assay (co-expression in E. coli, immunoblot with anti-ubiquitin antibody) [2] | in vitro DUB activity assay (data not shown) [3] |
| --- | --- | --- | --- |
| B1 | UBP15 can cleave substrate UBQ10 (hexameric polyubiquitin) | UBP15 can cleave substrate UBQ1 (ubiquitin-extension protein) | UBP15 can only cleave a-linked peptide (polyubiquitin and ubiquitin-extension gene) (FIG. 5A), not c-linked isopeptide (multiubiquitin chain linked by iso-peptide) (data not shown) |
| B2 | Cysteine^447 is essential for this DUB activity | Cysteine^447 is essential for this DUB activity | – |
| B3 | Cysteine^447 is essential for this DUB activity | Cysteine^447 is essential for this DUB activity | – |
